Source: paper PMC12698191 (Molecular cell, 2025)

B1: purified human PSA (shorter isoform) (enzyme, UniProt P55786-1 45-919, looked up)
chain: MPEKRPFERLPADVSPINYSLCLKPDLLDFTFEGKLEAAAQVRQATNQIVMNCADIDIITASYAPEGDEEIHATGFNYQNEDEKVTLSFPSTLQTGTGTLKIDFVGELNDKMKGFYRSKYTTPSGEVRYAAVTQFEATDARRAFPCWDEPAIKATFDISLVVPKDRVALSNMNVIDRKPYPDDENLVEVKFARTPVMSTYLVAFVVGEYDFVETRSKDGVCVRVYTPVGKAEQGKFALEVAAKTLPFYKDYFNVPYPLPKIDLIAIADFAAGAMENWGLVTYRETALLIDPKNSCSSSRQWVALVVGHELAHQWFGNLVTMEWWTHLWLNEGFASWIEYLCVDHCFPEYDIWTQFVSADYTRAQELDALDNSHPIEVSVGHPSEVDEIFDAISYSKGASVIRMLHDYIGDKDFKKGMNMYLTKFQQKNAATEDLWESLENASGKPIAAVMNTWTKQMGFPLIYVEAEQVEDDRLLRLSQKKFCAGGSYVGEDCPQWMVPITISTSEDPNQAKLKILMDKPEMNVVLKNVKPDQWVKLNLGTVGFYRTQYSSAMLESLLPGIRDLSLPPVDRLGLQNDLFSLARAGIISTVEVLKVMEAFVNEPNYTVWSDLSCNLGILSTLLSHTDFYEEIQEFVKDVFSPIGERLGWDPKPGEGHLDALLRGLVLGKLGKAGHKATLEEARRRFKDHVEGKQILSADLRSPVYLTVLKHGDGTTLDIMLKLHKQADMQEEKNRIERVLGATLLPDLIQKVLTFALSEEVRPQDTVSVIGGVAGGSKHGRKAAWKFIKDNWEELYNRYQGGFLISRLIKLSVEGFAVDKMAGEVKAFFESHPAPSAERTIQQCCENILLNAAWLKRDAESIHQYLLQRKASPPTV
B2: purified human SWELL1 (homo-hexamer) (natural protein)
chain: MIPVTELRYFADTQPAYRILKPWWDVFTDYISIVMLMIAVFGGTLQVTQDKMICLPCKWVTKDSCNDSFRGWAAPGPEPTYPNSTILPTPDTGPTGIKYDLDRHQYNYVDAVCYENRLHWFAKYFPYLVLLHTLIFLACSNFWFKFPRTSSKLEHFVSILLKCFDSPWTTRALSETVVEESDPKPAFSKMNGSMDKKSSTVSEDVEATVPMLQRTKSRIEQGIVDRSETGVLDKKEGEQAKALFEKVKKFRTHVEEGDIVYRLYMRQTIIKVIKFILIICYTVYYVHNIKFDVDCTVDIESLTGYRTYRCAHPLATLFKILASFYISLVIFYGLICMYTLWWMLRRSLKKYSFESIREESSYSDIPDVKNDFAFMLHLIDQYDPLYSKRFAVFLSEVSENKLRQLNLNNEWTLDKLRQRLTKNAQDKLELHLFMLSGIPDTVFDLVELEVLKLELIPDVTIPPSIAQLTGLKELWLYHTAAKIEAPALAFLRENLRALHIKFTDIKEIPLWIYSLKTLEELHLTGNLSAENNRYIVIDGLRELKRLKVLRLKSNLSKLPQVVTDVGVHLQKLSINNEGTKLIVLNSLKKMANLTELELIRCDLERIPHSIFSLHNLQEIDLKDNNLKTIEEIISFQHLHRLTCLKLWYNHIAYIPIQIGNLTNLERLYLNRNKIEKIPTQLFYCRKLRYLDLSHNNLTFLPADIGLLQNLQNLAITANRIETLPPELFQCRKLRALHLGNNVLQSLPSRVGELTNLTQIELRGNRLECLPVELGECPLLKRSGLVVEEDLFNTLPPEVKERLWRADKEQA

Experiments:
Test in all cases: cryo-EM structure
[1] = target: B2
[2] = target: B1
[3] = target: the molecule itself

stoichiometry N [1] | binding result [2] | Binder | stoichiometry N [3]
3 PSA molecules per SWELL1 hexamer | – | B1 | –
– | binds | B2 | 6
